Test system: peptide library, one residue held at a place counted from the Y acceptor
Experiment: relative phosphorylation of the sub-library (ratio to the mean residue at this position); higher = residue favoured
How it was run: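 Peptide library mixtures, biotinylated and centred on Tyr, each fixed one residue at one position from −5 to +5. Purified recombinant kinases were incubated with them for 90 min in 384-well plates alongside 50 μM ATP and γ-32P-ATP, and the captured, rinsed peptides on streptavidin membranes were measured by phosphorimaging and ImageQuant. Normalization divided each position's intensities by the sum of its 18 randomized residues (16 for the Ser/Thr-free library) and multiplied by that number, so that values give phosphorylation relative to the mean randomized residue.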

PDHK1, construct: Full length, human, sequence (Q15118 whole entry, looked up): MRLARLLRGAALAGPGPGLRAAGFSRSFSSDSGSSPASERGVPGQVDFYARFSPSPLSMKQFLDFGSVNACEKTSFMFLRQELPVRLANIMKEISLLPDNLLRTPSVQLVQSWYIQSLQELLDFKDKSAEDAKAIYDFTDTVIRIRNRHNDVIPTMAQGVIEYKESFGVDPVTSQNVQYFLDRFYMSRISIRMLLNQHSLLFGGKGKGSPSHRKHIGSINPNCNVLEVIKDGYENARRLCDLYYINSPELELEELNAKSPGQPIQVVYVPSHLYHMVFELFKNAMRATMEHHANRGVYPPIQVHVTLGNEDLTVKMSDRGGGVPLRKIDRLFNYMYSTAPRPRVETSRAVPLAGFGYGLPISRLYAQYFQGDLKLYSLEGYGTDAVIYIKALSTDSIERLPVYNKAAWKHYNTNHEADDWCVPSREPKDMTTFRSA
PDGFRB, construct: aa557-end, human, sequence (P09619 557-1106, looked up): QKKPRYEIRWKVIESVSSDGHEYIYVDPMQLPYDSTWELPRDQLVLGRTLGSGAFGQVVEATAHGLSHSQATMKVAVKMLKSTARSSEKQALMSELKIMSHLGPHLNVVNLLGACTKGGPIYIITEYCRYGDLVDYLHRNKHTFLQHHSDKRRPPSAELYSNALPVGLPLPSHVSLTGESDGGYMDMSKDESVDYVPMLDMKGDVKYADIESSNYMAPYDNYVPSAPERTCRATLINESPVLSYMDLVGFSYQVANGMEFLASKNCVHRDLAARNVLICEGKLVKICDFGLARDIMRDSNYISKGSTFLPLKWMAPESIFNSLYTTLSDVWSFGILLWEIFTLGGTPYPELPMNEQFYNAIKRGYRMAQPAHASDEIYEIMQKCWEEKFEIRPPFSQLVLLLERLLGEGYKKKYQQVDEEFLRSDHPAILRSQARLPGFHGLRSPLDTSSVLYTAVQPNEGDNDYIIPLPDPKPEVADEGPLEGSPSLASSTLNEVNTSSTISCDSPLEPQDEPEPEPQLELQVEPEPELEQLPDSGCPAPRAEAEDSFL

PDGFRB, construct: aa557-end, human (from UniProt P09619)
relative phosphorylation
Conditions	at +1	at +2	at +3	at +4	at +5	at -1	at -2	at -3	at -4	at -5
A fixed	1.1	0.618	0.621	0.809	0.959	0.751	0.921	0.883	1.02	0.916
D fixed	0.263	0.542	0.332	0.816	0.825	1.46	0.994	1.26	1.11	1.13
E fixed	0.377	0.815	0.245	0.817	0.757	0.988	1.08	1.26	0.996	1.12
F fixed	1.49	1.41	1.54	0.86	0.93	1.33	0.75	0.807	1.01	0.902
G fixed	0.536	0.452	0.617	1.01	1.11	0.532	1.18	1.03	1.15	1.11
H fixed	1.25	0.986	0.975	1.25	1.04	1.96	1.27	1.08	1.08	1.08
I fixed	1.91	1.04	2.13	0.898	0.769	1.12	0.745	0.707	0.816	0.877
K fixed	0.561	1.02	0.776	1.17	1.15	0.534	1.02	0.997	1.05	1.06
L fixed	0.96	1.12	1.57	0.854	0.906	0.898	0.88	0.752	0.793	0.843
M fixed	0.964	1.2	1.3	0.978	0.852	0.818	0.76	0.857	0.816	0.892
N fixed	0.451	0.899	0.775	0.976	1.12	1.58	1.28	1.31	1.03	1.12
P fixed	0.259	0.732	0.857	0.909	1.08	0.742	1.05	1.08	1.16	0.995
Q fixed	1.05	0.969	0.715	1.14	1	1.11	1.23	1.12	1.14	1.21
R fixed	0.668	1.67	1.09	1.5	1.41	0.56	1.2	1.19	1.14	1.37
S fixed	0.828	0.663	0.733	0.958	1.2	0.696	1.16	1.08	0.87	0.916
T fixed	1.27	0.75	0.711	0.965	0.96	0.872	0.958	0.923	0.759	0.76
V fixed	2.65	0.96	1.58	0.881	0.768	1.05	0.752	0.744	0.776	0.721
W fixed	1.41	2.14	1.42	1.2	1.15	0.997	0.787	0.924	1.28	0.986
pThr fixed	0.867	0.439	0.272	0.505	0.575	0.682	0.836	0.865	0.87	0.845
pTyr fixed	1.15	1.84	0.4	0.809	0.751	1.06	1.08	1.19	1.29	1.01

PDHK1, construct: Full length, human (from UniProt Q15118)
relative phosphorylation
Conditions	at +1	at +2	at +3	at +4	at +5	at -1	at -2	at -3	at -4	at -5
A fixed	0.893	0.682	0.8	0.868	0.717	0.76	1.54	0.847	0.895	0.845
D fixed	1.27	1.58	1.3	1.3	1.52	1.58	1.19	1.2	1.32	1.24
E fixed	1.12	1.17	1.41	1.16	1.27	1.96	1.24	1.06	1.26	1.34
F fixed	0.897	1.29	0.991	0.899	0.97	0.627	0.764	0.933	1.06	1.01
G fixed	1.04	0.92	1.02	1.16	1.1	0.971	1.17	1.03	1.06	0.973
H fixed	1.2	1.02	1.03	1.17	1.08	0.937	0.903	1.01	1	1.14
I fixed	0.779	0.704	0.862	0.895	0.845	0.938	0.71	0.72	0.755	0.844
K fixed	0.785	0.938	0.809	0.891	0.784	0.819	0.827	0.912	0.865	0.974
L fixed	0.844	0.863	0.78	0.907	0.838	0.888	0.72	0.93	0.881	0.906
M fixed	1.18	0.882	1.03	0.911	0.873	0.794	0.826	0.843	0.914	0.837
N fixed	1.1	1.02	1.01	0.982	1.04	1.03	1.01	1.01	0.997	1.03
P fixed	0.925	1.1	0.981	1.16	0.898	0.974	1.73	1.06	0.91	0.945
Q fixed	0.986	0.997	1.02	0.986	0.992	0.983	0.863	1.19	1.18	0.977
R fixed	0.822	0.851	0.899	0.819	0.863	0.744	0.818	0.976	0.891	0.935
V fixed	0.739	0.707	0.766	0.718	0.747	1.03	0.758	0.802	0.759	0.702
W fixed	1.41	1.27	1.3	1.18	1.47	0.96	0.934	1.48	1.26	1.3
pThr fixed	1.42	1.51	1.34	1.12	1.01	1.72	1.35	1.53	1.52	1.45
pTyr fixed	1.23	1.36	1.41	1.14	1.31	1.71	1.63	1.64	1.36	1.47

Reference: the supplement of paper PMC11136658
